# Results published in US20180066015A1, “INHIBITORS OF GROWTH FACTOR ACTIVATION ENZYMES” (Washington University, published 2018).
# Like-named read-outs stand apart in the source and are kept apart here. Starred links: 1 amine or outer side, 2 acyl side, 3 side chain; linkers in the order of their positions; H or OH if unused. Primed or numbered codes have the meaning given here. *: point of attachment. Kbt‑6‑CONH = ketobenzothiazole-6-CONH (amide link to Val), O=C(c1ccc2nc([*:1])sc2c1)[*:2]; kt = C-terminal ketothiazole, c1csc(*)n1; kt″ = ketothiazole, c1csc(*)n1
# T1: matriptase (Charles Craik, UCSF), recombinant (Homo sapiens (Human), UniProt Q9Y5Y6)
# T1 sequence: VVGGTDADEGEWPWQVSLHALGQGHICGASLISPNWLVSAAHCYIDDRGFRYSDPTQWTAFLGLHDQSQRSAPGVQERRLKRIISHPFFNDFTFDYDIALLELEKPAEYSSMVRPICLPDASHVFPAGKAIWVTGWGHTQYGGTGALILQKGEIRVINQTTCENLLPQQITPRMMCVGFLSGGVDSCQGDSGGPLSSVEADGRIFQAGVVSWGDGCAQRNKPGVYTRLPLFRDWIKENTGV
# T2: matriptase (Charles Craik, UCSF), recombinant (Homo sapiens (Human)) (UniProt Q9Y5Y6)
# T2 sequence: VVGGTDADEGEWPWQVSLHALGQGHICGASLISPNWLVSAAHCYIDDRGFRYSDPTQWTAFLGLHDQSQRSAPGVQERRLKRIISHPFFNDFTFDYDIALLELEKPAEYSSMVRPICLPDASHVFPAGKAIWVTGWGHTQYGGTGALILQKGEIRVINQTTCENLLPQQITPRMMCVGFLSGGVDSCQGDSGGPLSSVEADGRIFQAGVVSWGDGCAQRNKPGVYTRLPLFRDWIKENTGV
# What was measured:
# [1] = target: Ac-His(3Bom)-Agp-hLeu-Arg-ACC
# Ac-Ala-Arg-Leu-Arg-ACC [2] = target: Ac-Ala-Arg-Leu-Arg-ACC
# [3] = target: Ac-Ala-Arg-Leu-P1-ACC, P1 = L-Ile (I)
# [4] = target: Ac-Ala-Arg-Leu-P1-ACC, P1 = L-Ala (A)
# [5] = target: Ac-Ala-Arg-Leu-P1-ACC, P1 = L-Thr (T)
# [6] = target: Ac-Ala-Arg-Leu-P1-ACC, P1 = Gly (G)
# [7] = target: Ac-Ala-Arg-Leu-P1-ACC, P1 = L-Gln (Q)
# [8] = target: Ac-Ala-Arg-Leu-P1-ACC, P1 = L-Trp (W)
# [9] = target: Ac-Ala-Arg-Leu-P1-ACC, P1 = L-Pro (P)
# [10] = target: Ac-Ala-Arg-Leu-P1-ACC, P1 = L-Ser (S)
# [11] = target: Ac-Ala-Arg-Leu-P1-ACC, P1 = L-Asp (D)
# [12] = target: Ac-Ala-Arg-Leu-P1-ACC, P1 = L-Phe (F)
# [13] = target: Ac-Ala-Arg-Leu-P1-ACC, P1 = L-Lys (K)
# Ac-Ala-Arg-Leu-Arg-ACC [14] = target: Ac-Ala-Arg-Leu-Arg-ACC; remark: listed apart in the source
# [15] = target: Ac-Ala-Arg-Leu-P1-ACC, P1 = L-Val (V)
# [16] = target: Ac-Ala-Arg-Leu-P1-ACC, P1 = L-Glu (E)
# [17] = target: Ac-Ala-Arg-Leu-P1-ACC, P1 = L-Tyr (Y)
# [18] = target: Ac-Ala-Arg-Leu-P1-ACC, P1 = L-Met (M)
# [19] = target: Ac-Ala-Arg-Leu-P1-ACC, P1 = L-Leu (L)
# [20] = target: Ac-Ala-Arg-Leu-P1-ACC, P1 = L-His (H)
# [21] = target: Ac-Ala-Arg-Leu-P1-ACC, P1 = L-Asn (N)
# [22] = target: T1, matriptase (Charles Craik, UCSF), …; assay: fluorogenic inhibition assay
# recombinant thrombin [23] = assay: chromogenic inhibition assay
# Factor Xa [24] = assay: chromogenic inhibition assay
# [25] = target: Recombinant human hepsin (4776-SE-010, R&D Systems), activated (human) (UniProt P05981)
# [26] = target: Hepatocyte Growth Factor Activator (HGFA) serine protease domain, N-terminal His-tag, recombinant (Homo sapiens (Human)) (UniProt Q04756)
# [27] = target: T2, matriptase (Charles Craik, UCSF), recombinant (Homo sapiens (Human))
# [28] = target: Hepatocyte Growth Factor Activator (HGFA) serine protease domain, N-terminal His-tag, recombinant (Homo sapiens (Human)) (UniProt Q04756); assay: fluorogenic inhibition assay
# [29] = target: T3, Recombinant human hepsin (4776-SE-010, R&D Systems), activated (human, UniProt P05981); assay: fluorogenic inhibition assay
# Description: (§1) Inhibitors (11-pt serial dilutions, 0-20 μM final concentration in reaction) were serially diluted in DMSO (2% DMSO final concentration) and then mixed with either recombinant serine protease domain of HGFA [Z. Han, P. K. Harris, D. E. Jones, R. Chugani, T. Kim, M. Agarwal, W. Shen, S. A. Wildman, J. W. Janetka, Acs Med Chem Lett 2014, 5, 1219-1224], matriptase (Charles Craik, UCSF) or hepsin* (#4776-SE-010, R&D Systems, Minneapolis, Minn.) in black 384 well plates (Corning #3575. Corning, N.Y.). […] The final substrate concentrations for all assays were at the Kₘ for the respective enzymes. Changes in fluorescence (excitation at 380 nm and emission at 460 nm) were measured at room temperature over time in a Biotek Synergy 2 plate reader (Winnoski, Vt.). Using GraphPad Prism version 6.04 software program, (GraphPad Software, San Diego, Calif., www.graphpad.com), a four parameter curve fit was used to determine the inhibitor IC₅₀s from a plot of the mean reaction velocity versus the inhibitor concentration. The IC₅₀ values represent the average of three separate experimental determinations.
# [30] = target: T1, matriptase (Charles Craik, UCSF), …; assay: fluorogenic inhibition assay; remark: listed apart in the source
# Description: as §1
# [31] = target: Hepatocyte Growth Factor Activator (HGFA) serine protease domain, N-terminal His-tag, recombinant (Homo sapiens (Human)) (UniProt Q04756); assay: fluorogenic inhibition assay; remark: listed apart in the source
# [32] = target: Hepatocyte Growth Factor Activator (HGFA) serine protease domain, N-terminal His-tag, recombinant (Homo sapiens (Human)) (UniProt Q04756); remark: listed apart in the source
# [33] = target: T3, Recombinant human hepsin (4776-SE-010, …); assay: fluorogenic inhibition assay; remark: listed apart in the source
# [34] = target: T3, Recombinant human hepsin (4776-SE-010, …); assay: fluorogenic inhibition assay; remark: listed apart in the source
# [35] = target: T1, matriptase (Charles Craik, UCSF), …; assay: fluorogenic inhibition assay; remark: listed apart in the source
# Trypsin = assay: selectivity inhibition assay
# recombinant thrombin [36] = assay: selectivity inhibition assay
# Factor Xa [37] = assay: selectivity inhibition assay
# [38] = target: Hepatocyte Growth Factor Activator (HGFA) serine protease domain, N-terminal His-tag, recombinant (Homo sapiens (Human)) (UniProt Q04756); assay: fluorogenic inhibition assay; remark: listed apart in the source
molecule,measurement,setting,value
"Hepatocyte Growth Factor Activator (HGFA) serine protease domain, N-terminal His-tag, recombinant (from UniProt Q04756) (enzyme)",kcat/KM,[1],28100
same,kcat/KM,Ac-Ala-Arg-Leu-Arg-ACC [2],3140
same,kcat/KM,Ac-Agp-hArg-Leu-Arg-ACC,41300
same,kcat/KM,NH2-Leu-DTrp-Nle-Arg-ACC,17700
same,Km of fluorogenic substrate,Boc-QLR-AMC,37 µM
same,"% activity, P1 position",[3],0%
same,"% activity, P1 position",[4],0%
same,"% activity, P1 position",[5],0%
same,"% activity, P1 position",[6],0%
same,"% activity, P1 position",[7],0%
same,"% activity, P1 position",[8],0.73%
same,"% activity, P1 position",[9],0%
same,"% activity, P1 position",[10],0%
same,"% activity, P1 position",[11],0%
same,"% activity, P1 position",[12],0%
same,"% activity, P1 position",[13],0.99%
same,"% activity, P1 position",Ac-Ala-Arg-Leu-Arg-ACC [14],100%
same,"% activity, P1 position",[15],0%
same,"% activity, P1 position",[16],0%
same,"% activity, P1 position",[17],0%
same,"% activity, P1 position",[18],0%
same,"% activity, P1 position",[19],0%
same,"% activity, P1 position",[20],0%
same,"% activity, P1 position",[21],0%
Ac-SWLR-kt (SMILES CC(=O)N[C@@H](CO)C(=O)N[C@@H](Cc1c[nH]c2ccccc12)C(=O)N[C@@H](CC(C)C)C(=O)N[C@@H](CCCNC(=N)N)C(=O)c1nccs1) [Ac-SWLR(SEQ ID NO: 17)-kt],Ki,[22],66 nM
same,Ki,recombinant thrombin [23],3.7 µM
same,Ki,Factor Xa [24],759 nM
same,IC50 of enzyme inhibition,[25],9 nM
same,IC50 of enzyme inhibition,[26],0.435 µM
same,IC50 of enzyme inhibition,[27],0.175 µM
same,Ki,[28],66 nM
same,Ki,[29],1.2 nM
same,Ki,[30],69 nM
same,Ki,[31],63 nM
Ac-KRLR-kt (SMILES CC(=O)N[C@@H](CCCCN)C(=O)N[C@@H](CCCNC(=N)N)C(=O)N[C@@H](CC(C)C)C(=O)N[C@@H](CCCNC(=N)N)C(=O)c1nccs1) [Ac-KRLR(SEQ ID NO: 8)-kt],EC50 of inhibition of c-MET phosphorylation (Y1234/1235) in MDA-MB-231 cells treated with pro-HGF/HGFA reactions,[32],180 nM
same,IC50 of enzyme inhibition,[25],5 nM
same,IC50 of enzyme inhibition,[26],0.225 µM
same,IC50 of enzyme inhibition,[27],0.014 µM
same,Ki,[29],0.57 nM
same,Ki,[30],1.1 nM
same,Ki,[31],12 nM
Ac-KQLR-{kt″} (SMILES CC(=O)N[C@@H](CCCCN)C(=O)N[C@@H](CCC(N)=O)C(=O)N[C@@H](CC(C)C)C(=O)N[C@@H](CCCNC(=N)N)C(=O)c1nccs1) [Ac-KQLR(SEQ ID NO: 1)-kt],Ki,recombinant thrombin [23],> 20 µM
same,Ki,Factor Xa [24],170 nM
same,IC50 of enzyme inhibition,[25],2 nM
same,IC50 of enzyme inhibition,[26],0.445 µM
same,IC50 of enzyme inhibition,[27],0.005 µM
same,Ki,[28],53 nM
same,Ki,[29],0.19 nM
same,Ki,[30],1.6 nM
same,Ki,[31],70 nM
Ac-KQLR-{Kbt‑6‑CONH-Val-NH2} [Ac-KQLR(SEQ ID NO: 1)-Kbt-Val-NH2],fold decrease of activity against Ac-KQLR-kbt (7),[33],> 3 fold
same,fold decrease of activity against Ac-KQLR-kbt (7),[22],> 10 fold
same,Ki,[34],0.29 nM
same,Ki,[35],6.98 nM
same,Ki,Trypsin,0.07 nM
same,Ki,recombinant thrombin [36],3.21 µM
same,Ki,Factor Xa [37],66 nM
same,Ki,[38],13 nM
same,fold change of potency against Ac-KQLR-kbt (7),[38],2 fold
same,Ki,[31],12 nM
